In brackets after ≈: the same amount, converted by molar mass.
Experiments:
[1] = Influence of storage temperature on stability of ALM-488 solution (HPLC); type: physicochemical; details: 50 mg/mL in sterile water
Protocol: To evaluate whether the ALM-488, HCl salt can be supplied in the form of a concentrated frozen solution, 50 mg/mL solutions of the HCl salt were prepared in water and evaluated for storage stability at different temperatures. The solutions having pH of 1.87 were prepared in sterile water for injection, and these solutions were stored at different storage temperatures (−20° C., 5° C. and 40° C.) and were analyzed using the HPLC method of Table 3 at different time periods.

[2] = Effect of organic amine compounds on solubility of ALM-488 (pH titration)
Protocol: To assess formulations that could be used to prepare ~50 mg/vial samples of ALM-488, and samples having an ALM-488 concentration of ~50 mg/mL, formulations having different organic amine compounds were studied. Each of these samples included (i) ALM-488 hydrochloride, (ii) a suitable base appropriate for a freeze-dried formulation (to adjust solution pH to optimal 7-8, as described in Examples 4 and 5), and (iii) at least one organic amine compound functioning as a pH-adjusting agent, bulking agent and/or a tonicity-adjusting agent. […] 55-60 mg/mL solutions of ALM-488 (pH 1.8-1.9) were titrated by gradual addition of 750 mM arginine, 1 M Tris, or 1 M meglumine.

[3] = Influence of pH on solubility and stability of ALM-488; type: physicochemical
Protocol: To understand pH-stability relationships, solutions of the ALM-488, HCl salt were prepared at ~1 mg/mL in 50 mM sodium citrate (pH 4-6) or sodium phosphate buffer (pH 7-8) solutions. […] All mixtures were filtered through a 0.45 μm PVDF syringe filter to remove undissolved solid, prior to storage. The filtered solution pH values were measured, and the samples were analyzed by HPLC using the HPLC method conditions of Table 3. Table lists the measured concentrations of ALM-488 (after filtration) as well as the measured solution pH values.
The solutions were then transferred into HPLC sample vials and were stored at 5° C., room temperature (22-23° C.) and 40° C.
Table 5 below summarizes the measured concentrations of intact ALM-488 peptide quantified relative to a standard solution, as well as the area % of the main peptide peaks as measured using the HPLC analysis method of Table 3. FIG. 9 is an overlay of representative chromatograms of the ALM-488 solutions at different solution pH values stored at 40° C. for 24 h. […] At higher pH values, the impurity at RRT ~0.96 appeared to grow during storage.

[4] = Drug product assay of lyophiles by HPLC; type: physicochemical; details: Pre-Lyo., starting peptide
Protocol: The content and purity of the ALM-488 peptide in the lyophilized product vials for Samples 10-1, 10-2 and 10-3 were evaluated using the HPLC method conditions of Table 3. […] The resulting solution was then transferred to a 200 mL volumetric flask. Each vial was rinsed well with water, and the rinses were transferred to the flask prior to volume make-up to 200 mL with water. The resulting solutions (~0.25 mg/mL of ALM488) were individually injected into the HPLC system and were analyzed as described above. The lyophilization process appeared to cause a small increase in the levels of some impurities.

[5] = After 24 hours at 40° C., Citrate buffer 50 mM, pH 3.95
[6] = After 24 hours at 40° C., Citrate buffer 50 mM, pH 4.97
[7] = After 24 hours at 40° C., Citrate buffer 50 mM, pH 6.01
[8] = After 24 hours at 40° C., Phos. buffer 50 mM, pH 7.04
[9] = After 24 hours at 40° C., Phos. buffer 50 mM, pH 8.18
[10] = After 24 hours at 40° C., Water
[11] = Initial, Citrate buffer 50 mM, pH 3.95
[12] = Initial, Citrate buffer 50 mM, pH 4.97
[13] = Initial, Phos. buffer 50 mM, pH 7.04
[14] = Initial, Phos. buffer 50 mM, pH 8.18

Compound: CC(C)[C@H](NC(=O)[C@H](Cc1ccc(O)cc1)NCCCCC(=O)[C@H](Cc1ccc(O)cc1)NC(=O)[C@@H]1CCCN1C(=O)[C@H](CCC(=O)O)NC(=O)[C@H](CCC(=O)O)NC(=O)[C@H](Cc1c[nH]c2ccccc12)NC(=O)[C@@H]1CCCN1C(=O)[C@@H](NC(=O)[C@H](CCC(N)=O)NC(=O)c1ccc2c(c1)C(=O)OC21c2ccc(O)cc2Oc2cc(O)ccc21)C(C)C)C(=O)N[C@H](C(=O)N[C@@H](CCCCN)C(=O)N[C@@H](CCCCN)C(=O)N[C@@H](CO)C(=O)N[C@@H](CO)C(=O)NCC(=O)NCC(N)=O)C(C)C [ALM-488, Bevonescein]
- ALM-488 main peak ([1]; 7 Days (5° C.)): 99.61 AREA %
- impurity RRT~0.73 ([1]; 7 Days (5° C.)): 0.07 AREA %
- impurity RRT~0.97 ([1]; 7 Days (5° C.)): 0.15 AREA %
- impurity RRT~1.06 ([1]; 7 Days (5° C.)): 0.14 AREA %
- impurity RRT~1.38 ([1]; 7 Days (5° C.)): 0.05 AREA %
- ALM-488 main peak ([1]; 7 Days (40° C.)): 97.96 AREA %
- impurity RRT~0.73 ([1]; 7 Days (40° C.)): 0.05 AREA %
- impurity RRT~0.93 ([1]; 7 Days (40° C.)): 0.09 AREA %
- impurity RRT~0.97 ([1]; 7 Days (40° C.)): 0.07 AREA %
- impurity RRT~1.06 ([1]; 7 Days (40° C.)): 1.43 AREA %
- impurity RRT~1.18 ([1]; 7 Days (40° C.)): 0.07 AREA %
- impurity RRT~1.38 ([1]; 7 Days (40° C.)): 0.27 AREA %
- ALM-488 main peak ([1]; 7 Days (−20° C.)): 99.56 AREA %
- impurity RRT~0.73 ([1]; 7 Days (−20° C.)): 0.07 AREA %
- impurity RRT~0.94 ([1]; 7 Days (−20° C.)): 0.03 AREA %
- impurity RRT~0.97 ([1]; 7 Days (−20° C.)): 0.16 AREA %
- impurity RRT~1.06 ([1]; 7 Days (−20° C.)): 0.15 AREA %
- impurity RRT~1.38 ([1]; 7 Days (−20° C.)): 0.04 AREA %
- ALM-488 main peak ([1]; Initial (RT)): 99.64 AREA %
- impurity RRT~0.94 ([1]; Initial (RT)): 0.09 AREA %
- impurity RRT~0.97 ([1]; Initial (RT)): 0.23 AREA %
- impurity RRT~1.06 ([1]; Initial (RT)): 0.09 AREA %
- solubility [2]: > 50000 µg/mL
- solubility ([3]; 50 mm citrate buffer, aqueous buffer, citrate buffers (pH 4-6), read-out: solubility): < 1000 µg/mL
- ALM488 concentration [3, 5]: 0.87 mg/mL
- HPLC purity, area % [3, 5]: 99.5%
- ALM488 concentration [3, 6]: 0.18 mg/mL
- HPLC purity, area % [3, 6]: 99.8%
- ALM488 concentration [3, 7]: 0.60 mg/mL
- HPLC purity, area % [3, 7]: 99.8%
- ALM488 concentration [3, 8]: 0.95 mg/mL
- HPLC purity, area % [3, 8]: 99.8%
- ALM488 concentration [3, 9]: 0.96 mg/mL
- HPLC purity, area % [3, 9]: 99.5%
- ALM488 concentration [3, 10]: 0.86 mg/mL
- HPLC purity, area % [3, 10]: 99.3%
- Measured solution pH ([3]; Citrate buffer 50 mM (pH 3.95)): 3.85
- solubility ([3]; Citrate buffer 50 mM (pH 3.95), read-out: Measured concentration in filtered solution): 830 µg/mL (≈ 351 µM)
- Measured solution pH ([3]; Citrate buffer 50 mM (pH 4.97)): 4.89
- solubility ([3]; Citrate buffer 50 mM (pH 4.97), read-out: Measured concentration in filtered solution): 180 µg/mL (≈ 76.1 µM)
- Measured solution pH ([3]; Citrate buffer 50 mM (pH 6.01)): 5.91
- solubility ([3]; Citrate buffer 50 mM (pH 6.01), read-out: Measured concentration in filtered solution): 610 µg/mL (≈ 258 µM)
- ALM488 concentration [3, 11]: 0.83 mg/mL
- HPLC purity, area % [3, 11]: 99.3%
- ALM488 concentration [3, 12]: 0.18 mg/mL
- HPLC purity, area % [3, 12]: 99.8%
- ALM488 concentration ([3]; Initial, Citrate buffer 50 mM, pH 6.01): 0.61 mg/mL
- ALM488 concentration [3, 13]: 0.94 mg/mL
- HPLC purity, area % [3, 13]: 99.7%
- ALM488 concentration [3, 14]: 0.95 mg/mL
- HPLC purity, area % [3, 14]: 99.7%
- ALM488 concentration ([3]; Initial, Water): 0.86 mg/mL
- HPLC purity, area % ([3]; Initial, Water): 99.8%
- Measured solution pH ([3]; Phos. buffer 50 mM (pH 7.04)): 6.94
- Measured solution pH ([3]; Phos. buffer 50 mM (pH 8.18)): 7.90
- Measured solution pH ([3]; Water): 3.46
- solubility ([3]; aqueous buffer, pH 5, citrate buffer, read-out: solubility near isoelectric pH): ~200 µg/mL (≈ 84.5 µM)
- solution stability ([3]; neutral pH values): adequate solution stability
- solubility ([3]; phosphate buffer 50 mm, Phos. buffer 50 mM (pH 7.04), read-out: Measured concentration in filtered solution): 940 µg/mL (≈ 397 µM)
- solubility ([3]; phosphate buffer 50 mm, Phos. buffer 50 mM (pH 8.18), read-out: Measured concentration in filtered solution): 950 µg/mL (≈ 401 µM)
- impurity at RRT ~1.4 ([3]; water (pH 3.46), 40° C. for 24 h): ~ 0.5 area %
- dissolution ([3]; water (pH 3.5) and phosphate buffer (pH 7-8), ~1 mg/mL): rapid and complete
- solubility ([3]; water, read-out: Measured concentration in filtered solution): 860 µg/mL (≈ 363 µM)
- ALM-488 main peak [4]: 99.69 Area %
- impurity RRT~0.97 [4]: 0.14 Area %
- impurity RRT~1.06 [4]: 0.11 Area %
- impurity RRT~1.38 [4]: 0.02 Area %
